One may read the stoichiometry N as the number of molecules, sites or subunits per partner or assembly.

Common to all, as to assay: crystal structure
The target of assay [1] is recombinant C-terminal StrepII-tagged SbtB from Synechocystis sp. PCC 6803 (ScSbtB), wild type (Synechocystis sp. PCC 6803).
Assay [2] addresses recombinant C-terminal StrepII-tagged ScSbtB variant C105A+C110A (Synechocystis sp. PCC 6803).
For assay [3], the target named is recombinant C-terminal StrepII-tagged ScSbtB variant Δ104 (R-loop truncated from position 104 on) (Synechocystis sp. PCC 6803).

“recombinant C-terminal StrepII-tagged SbtB from Synechocystis sp. PCC 6803 (ScSbtB), wild type (natural protein)”: in assay [1], the stoichiometry N came out at 3.
As for “recombinant C-terminal StrepII-tagged ScSbtB variant C105A+C110A (natural protein)”, in assay [2], the stoichiometry N was determined as 3.
On to “recombinant C-terminal StrepII-tagged ScSbtB variant Δ104 (R-loop truncated from position 104 on) (domain or fragment)”, for which, in assay [3], the stoichiometry N came to 3.

For the origin of these results see paper PMC9974498.
